The Kd is the concentration at which binding is half-saturated. A high value points to weaker binding.

The assay concerns the target Cy-5-labelled H2A/H2B dimer, wild type (UniProt P02281). Description: fluorescence polarisation.

In the case of “RNF168 RING domain (residues 1–189) (from UniProt Q8IYW5 1-189) (domain or fragment)”, the Kd turned out to be 1 µM.

The values above are taken from PMC3929782.
